In patent US20250230248A1 (TAVOTEK BIOTHERAPEUTICS HONG KONG, published 2025):

B1: TV4 (antibody, V domains shown)
VH: QVQLQESGPGLVKPSGTLSLTCAVSGYIFTAYTMHWVRQPPGKGLEWIGGIKPNNGLANYNPSLKSRATLSVDKSKNQASMKLSSVTAADTAVYYCARSEITTEFDYWGQGTLVTVSS
VL: DIQMTQSPSSLSASVGDRVTITCRASESVDSYANSFMHWYQQKPGKAPKLLIYRASNLESGVPSRFSGSGSGTDFTLTISSLQPEDFATYYCQQSKEDPLTFGGGTKVEIK
notes: anti-cMET mAb hit; also called cMET TVH2 / cMET TVL2
B2: 7D VH6×TV4 bispecific antibody (bispecific antibody, not shown: a dimerising Fc or GST)
chain: not shown
VH: B1 VH
VL: B1 VL
notes: also called EGFR×cMet hit; candidate BsAb
B3: 7D VH4×TV4 bispecific antibody (bispecific antibody, not shown: a dimerising Fc or GST)
chain: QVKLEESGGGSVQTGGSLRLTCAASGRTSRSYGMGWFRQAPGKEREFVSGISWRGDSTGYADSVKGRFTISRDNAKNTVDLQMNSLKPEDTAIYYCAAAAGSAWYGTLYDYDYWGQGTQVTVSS
VH: B1 VH
VL: B1 VL
notes: as for B2
B4: TV1 (antibody, V domains shown)
VH: QVQLVQSGAEVKKPGSSVKVSCKASGYIFTAYTMHWVRQAPGQGLEWMGGIKPNNGLANYAQKFQGRVTITADESTSTAYMELSSLRSEDTAVYYCARSEITTEFDYWGQGTLVTVSS
VL: DIVMTQSPDSLAVSLGERATINCKSSESVDSYANSFLHWYQQKPGQPPKLLIYRASTRESGVPDRFSGSGSGTDFTLTISSLQAEDVAVYYCQQSKEDPLTFGGGTKVEIK
notes: anti-cMET mAb hit; also called cMET TVH1 / cMET TVL0
B5: Onartuzumab (antibody, V domains shown)
VH: EVQLVESGGGLVQPGGSLRLSCAASGYTFTSYWLHWVRQAPGKGLEWVGMIDPSNSDTRFNPNFKDRFTISADTSKNTAYLQMNSLRAEDTAVYYCATYRSYVTPLDYWGQGTLVTVSS
VL: DIQMTQSPSSLSASVGDRVTITCKSSQSLLYTSSQKNYLAWYQQKPGKAPKLLIYWASTRESGVPSRFSGSGSGTDFTLTISSLQPEDFATYYCQQYYAYPWTFGQGTKVEIK
notes: also called cMET OVH0 / cMET OVL0
B6: 7D VH1 (VHH)
VHH: EVQLVESGGGVVRPGGSLRLSCAASGRTSRSYGMGWFRQAPGKEREFVSGISWRGDSTGYADSVKGRFTISRDNAKNSVDLQMNSLRAEDTALYYCAAAAGSAWYGTLYEYDYWGQGTQVTVSS
notes: also called 7D VH hit; EGFR VHO mAb
B7: gp120 mAb (antibody, V domains shown)
VH: QVQLVQSGAEVKKPGASVKVSCQASGYRFSNFVIHWVRQAPGQRFEWMGWINPYNGNKEFSAKFQDRVTFTADTSANTAYMELRSLRSADTAVYYCARVGPYSWDDSPQDNYYMDVWGKGTTVIVSS
VL: EIVLTQSPGTLSLSPGERATFSCRSSHSIRSRRVAWYQHKPGQAPRLVIHGVSNRASGISDRFSGSGSGTDFTLTITRVEPEDFALYYCQVYGASSYTFGQGTKLERK
notes: also called anti-gp120 mAb v12; null control Ab
B8: EV1 (antibody, V domains shown)
VH: QVQLVQSGAEVKKPGASVKVSCKASGYTFTDYYMHWVRQAPGQGLEWMGRVNPNRGGTTYAQKFQGRVTMTTDTSISTAYMELSRLRSDDTAVYYCARANWLDYWGQGTTVTVSS
VL: DIQMTQSPSSLSASVGDRVTITCRVSQSVSSIYLHWYQQKPGKAPKLLIYSTSNLQSGVPSRFSGSGSGTDFTLTISSLQPEDFATYYCQVYSGYPLTFGGGTKVEIK
notes: anti-cMET mAb hit; also called cMET EVH1 / cMET EVL1
B9: 7D VH6×EV1 bispecific antibody (bispecific antibody, not shown: a dimerising Fc or GST)
chain: not shown
VH: B8 VH
VL: B8 VL
notes: as for B2
B10: 7D VH4×EV1 bispecific antibody (bispecific antibody, not shown: a dimerising Fc or GST)
chain: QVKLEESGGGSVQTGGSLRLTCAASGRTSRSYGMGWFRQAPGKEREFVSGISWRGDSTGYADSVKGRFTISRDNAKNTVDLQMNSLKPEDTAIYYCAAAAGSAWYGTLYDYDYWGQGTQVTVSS
VH: B8 VH
VL: B8 VL
notes: as for B2

What was measured:
[1] = target: T1, cMET extracellular domain (ECD) (UniProt P08581 25-932, limits assumed); assay: ELISA on cMET ECD, FIG. 3A
T1 construct: extracellular domain; Probably the same reagent as recombinant human cMET; also called cMET ECD

[2] = target: T1, cMET extracellular domain (ECD); assay: blocking of HGF binding to cMET ECD, ELISA, FIG. 3F
EGFR on HCC827 cells [3] = target: T2, EGFR on HCC827 cells (UniProt P00533 25-1210); assay: blocking of EGF binding to EGFR on HCC827 cells, FACS, FIG. 8B
T2 construct: whole, on cells; human tumour cell line; also called EGFR (HCC827)

EGFR on HCC827 cells [4] = target: T2, EGFR on HCC827 cells; assay: blocking of EGF-EGFR binding, HCC827 cells, gMFI, FIG. 2D
[5] = target: T3, recombinant human EGFR ECD (human, UniProt P00533 25-645); assay: ELISA on EGFR ECD, FIG. 2A
T3 construct: extracellular domain; also called EGFR extracellular domain (ECD)

T1 sequence (P08581 25-932 limits assumed): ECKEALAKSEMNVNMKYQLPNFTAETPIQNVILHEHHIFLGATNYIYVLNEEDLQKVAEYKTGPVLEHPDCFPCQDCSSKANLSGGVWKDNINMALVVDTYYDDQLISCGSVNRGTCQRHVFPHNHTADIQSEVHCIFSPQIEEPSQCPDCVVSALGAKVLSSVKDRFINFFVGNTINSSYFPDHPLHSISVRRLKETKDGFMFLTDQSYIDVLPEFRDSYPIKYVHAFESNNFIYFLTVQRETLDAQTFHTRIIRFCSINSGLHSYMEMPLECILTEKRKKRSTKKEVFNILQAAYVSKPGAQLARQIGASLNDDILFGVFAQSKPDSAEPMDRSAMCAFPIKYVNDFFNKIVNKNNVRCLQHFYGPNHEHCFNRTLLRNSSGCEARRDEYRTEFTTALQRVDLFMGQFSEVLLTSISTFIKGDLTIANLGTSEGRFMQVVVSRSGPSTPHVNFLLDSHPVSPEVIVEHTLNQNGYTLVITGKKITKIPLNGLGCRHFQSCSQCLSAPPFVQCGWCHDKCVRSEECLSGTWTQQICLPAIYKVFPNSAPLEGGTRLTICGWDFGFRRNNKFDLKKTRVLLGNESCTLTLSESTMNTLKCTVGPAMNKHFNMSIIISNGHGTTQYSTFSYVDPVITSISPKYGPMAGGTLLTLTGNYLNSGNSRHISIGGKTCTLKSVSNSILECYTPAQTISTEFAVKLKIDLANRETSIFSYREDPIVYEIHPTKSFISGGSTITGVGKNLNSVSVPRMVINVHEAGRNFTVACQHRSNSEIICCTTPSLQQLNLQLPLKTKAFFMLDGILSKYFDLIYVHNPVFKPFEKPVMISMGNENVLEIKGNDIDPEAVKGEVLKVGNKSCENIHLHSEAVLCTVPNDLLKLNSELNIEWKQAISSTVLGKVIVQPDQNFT

Binder | EC50 [1] | EC50 [2] | EC50 (EGFR on HCC827 cells [3]) | also measured
B1 | ~0.018 µg/mL | ~0.108 µg/mL | – | –
B2 | – | – | ~0.63 nM | –
B3 | – | – | ~0.93 nM | –
B4 | ~0.0185 µg/mL | ~0.122 µg/mL | – | –
B5 | ~0.025 µg/mL | ~0.093 µg/mL | – | –
B6 | – | – | – | EC50 (EGFR on HCC827 cells [4]): ~0.025 µg/mL
B7 | – | – | – | binding result [5]: no binding
B8 | ~0.0175 µg/mL | ~0.093 µg/mL | – | –
B9 | – | – | ~0.63 nM | –
B10 | – | – | ~0.81 nM | –
